assay: soluble on expression in E. coli; label from the status in PepcDB or PDB records

Row | Sequence | soluble on expression in E. coli
1 | MTPEALSFWTQADKPFLFLAACIELTNALAYGPGYVCGLPCSWDGSCSGAQHLCAATRSEDAWKVNLIGNDEVHDLYTIVGNAAKQSMARDTDPMVSTILAYEGDWRKVFKRNTMTTFYGSKGFGMAQQHMDDLMEPLSREVMQKKRAKHPFGQTRKEHHAASRLLAAHAAAAIKGEIPLAIKAMEFIQKLSAMMAHEGKPLEWTTPIGLPWSNRYHDPVTERVNLWMHDHGVRRPFRPVVADGYKKTINKNHSVNGSAPNFVHACDAAHLLRTVNAARAEGITQFALVHDSFGSLPSHAARFRQIIREEFVRMYEEHDVLTEVLEQAKCDLDEHNDKLSALVDMRADLTGKLNIKEVLNAEYAFAYPKLSEPDTKGEYADGKYKTEGTATEDYTERFQEEIQKVADDNFPGKKNVHLPWKETKEGDIAFIFKNPKKKPILTDSRGKPLKEGTVIRGGSKIRIAGVIAAWEKGAKRGVSLWPDAVRVIKLSEGFDANAAFGAAEDGFNADDYEPTNFGNDGEDADNDADDAEAGDDAFKLLEHHHHHH | not soluble
2 | MEQDDPSGEWPLIAALPVRQDVPVDALLADVAAQLAAEGLRTAGFLQRDGVRLEDLTSGALYPITQDLGPGSSGCRLDPAGLALAAAAGLAALERGADLLVIPRFGKAEIEGEGMRGVIGRACELGVPTLVGVRQSAEPAWETFAGGLAEWIAPERQAVAGWCRTACAPVRCRTLEHHHHHH | not soluble
3 | MAHHHHHHMDVSRRLAGENHDFRRSTQVPALCTKPQGGKGMRLNVLHEGAVPANDFHSAHLTPYEMDEIKGYSEVYYVGQNCDRKVQAPVEGGHNKGYDDERGDYLIRLRDHIAYRYEVLSTLGSGSFGQVVKAVDHCKNCTVALKIIRNRKRFTAQAKIEVQILSHLKKGDPSGIYGIVQMIDNFTFRSHVCITYELLGCNLYTYLKQRRFKPLPLDVVRKIGAGVLVSLSYMWRENIIHCDLKPENILLRSPNDTAVKVIDLGSSCFENARLFTYIQSRFYRAPEVLLGCPYSRCIDLWSYGCVLCELASGYPIFPGESEQEQMACIMEFLGTPPRDFILRSPRKHEFFEASANYSPKLVPNSKLKIRFPGTKNIAAFLGLPEGDPFVSFVKLFLEWVPDSRATPRRAMKHPWIADEVNELLSKQKRNTAATGEDDSESKFHKALPRLPKIGK | not soluble
4 | GPGSGLTELQMRARRCPNRQARIDWSEGEVRSFYQALSQYGTDFSAIAVLFPSRSRRDIKRLYQREMRQKPKEVQAALNQKHPIDMAVFEVRYEAKKKEAQQPVKMKKLNSEELAFLDEIAGRQPSESAMHMKGEELEVPVPAATLGGVEEATAAPPSRLRKRPRGTHQADSEDGPESKRATKEIPPAADDDFDMEQESFFDMVVRHEREDNAPLDMLFAAQLEQGQQQHLAALEDSDFSFE | soluble
5 | EECQVRVGDLTVAKTRGQLTDAAPIGPVTVQALGCNARQVALKADTDNFEQGKFFLISDNNRDKLYVNIRPMDNSAWTTDNGVFYKNDVGSWGGTIGIYVDGQQTNTPPGNYTLTLTGGYWAKDNKQGFTPSGTTGTTKLTVT | soluble
6 | MALLTKVTWNNIGMHQPQTNWYKGVWFPYSTPKYSFLLWLTIQNRLSTGDHIKAWNSGQQVTCTLCGNAEETRNLLFFSCHYTSEVWRTLTQRLLSNDYSRDWNRLLPLLCNTNMPTDLLFLFRYVFQASVYHIWRERNARRHGEISSPPNRLIKFIDKNVRNRINSIRDTGDHNYNACLQLWFSTRPLSSTHSL | soluble
7 | MENILDYNEAELKQWMDKNGEKTFRAKQFFDWIYNGTFDFKDMKNLPQSTRERLEKNFYIGMPSVVKRLNSKKGDTVKFLFRYNDGNIIECVVMKYDYGNSICISTQVGCRMGCSFCASTIGGRVRDLTSGEILAQILKAQKEIGERISNIVLMGSGEPLDNYDNVIKFIRIVNSEKGLNIGQRHITLSTCGIVPRIYDLMKENLQITLAISLHASDDETRKKIMPIANRYSISEIIDCCKKYSDFTGRRITFEYSLVKDVNDDKESAKKLGELLSGMLCHVNLIPVNTVNETSYEKPESSKIKKFCDTLLKYKIESTIRKEMGADINAACGQLRRNYIEESEGK | not soluble
8 | MGICVSFRREDSNSSPTVKIVTVNGDLREYNVPVIASQVLEAESAAAYSSSSSSRPSSYFICDSDSLYYDDFIPAIKSEEPLQADQIYFVLPISKRQSRLTASDMAALAVKASVAIQNSVKKESRRRKKVRISPVMMLTGSNDSVNGNGSETTVKKGRPFVSKTAPVKASSGINRSGSVRNLRRYTSKRAKLAVRSFRLKLSTIYEGSVV | not soluble
9 | MALTSDTQLNDIMRAAEAHKRIRGNLQKILKPGCSVREIIKYVEDSTRIMLHGEKNNGIGFPCGVSLNNVAAHFSLNPWNEDIILTKNDVLKIDFGTHSNGRIVDSAFSVSFDEKYTNLLLATKEATERGIKVIGIDMAVCEIGKEISEVFKSFEFEENGKMINIKPIWNLNGHSIDQYKIHAGISIPSINNGDYSRITPGFFAIETFASTGIGEIKDYGECSHFALASRPTTNKIYDKKNEEILNLIKKEFGTLPFSHQHLLYYTQNAKAAVQLLAARKFIDSYPPLVDIPKSYVAQFEHTLYITEKSKFNISKGDDYEGHHHHHH | soluble
10 | SQLVECVPNFSEGKNQEVIDAISRAVAQTPGCVLLDVDSGPSTNRTVYTFVGRPEDVVEGALNAARAAYQLIDMSRHHGEHPRMGALDVCPFIPVRGVTMDECVRCAQAFGQRLAEELGVPVYLYGEAARTAGRQSLPALRAGEYEALPEKLKQAEWAPDFGPSAFVPSWGATVAGARKFLLAFNINLLSTREQAHRIALDLREQGRGKDQPGRLKKVQAIGWYLDEKNLAQVSTNLLDFEVTGLHTVFEETCREAQELSLPVVGSQLVGLVPLKALLDAAAFYCEKENLFLLQDEHRIRLVVNRLGLDSLAPFKPKERIIEYLV | soluble
11 | MTMSELGSLFEAGYHDILQLLAGQGKSPSGPPFARYFGMSAGTFEVEFGFPVEGGVEGSGRVVTGLTPSGKAASSLYIGPYGEIEAVYDALMKWVDDNGFDLSGEAYEIYLDNPAETAPDQLRTRVSLEHHHHHH | not soluble
12 | PQFSLWKRPVVTAYIEGQPVEVLLDTGADDSIVAGIELGNNYSPKIVGGIGGFINTLEYKNVEIEVLNKKVRATIMTGDTPINIFGRNILTALGMSLNL | soluble
13 | MPEMPEDMEQEEVNIPNRRVLVTGATGLLGRAVHKEFQQNNWHAVGCGFRRARPKFEQVNLLDSNAVHHIIHDFQPHVIVHCAAERRPDVVENQPDAASQLNVDASGNLAKEAAAVGAFLIYISSDYVFDGTNPPYREEDIPAPLNLYGKTKLDGEKAVLENNLGAAVLRIPILYGEVEKLEESAVTVMFDKVQFSNKSANMDHWQQRFPTHVKDVATVCRQLAEKRMLDPSIKGTFHWSGNEQMTKYEMACAIADAFNLPSSHLRPITDSPVLGAQRPRNTQLDCSKLETLGIGQRTPFRIGIKESLWPFLIDKRWRQTVFH | not soluble
14 | MPYPKKVTIKEVGPRDGLQNEPVWIATEDKITWINQLSRTGLSYIEITSFVHPKWIPALRDAIDVAKGIDREKGVTYAALVPNQRGLENALEGGINEACVFMSASETHNRKNINKSTSESLHILKQVNNDAQKANLTTRAYLSTVFGCPYEKDVPIEQVIRLSEALFEFGISELSLGDTIGAANPAQVETVLEALLARFPANQIALHFHDTRGTALANMVTALQMGITVFDGSAGGLGGCPYAPGSSGNAATEDIVYMLEQMDIKTNVKLEKLLSAAKWIEEKMGKPLPSRNLQVFKSSLEHHHHHH | soluble
15 | MRLPCEVVFARYKANAGVNPKPTKSQKGFVILQKLRQTPPQYQITVAVAGDKTGNKFELNKPPIILDKFIAQGKTTITFQTTPAVMVCISKANPEALAQLIEAIRKIVKGENVDIEKVKVKSSDFKPTTITVNNQATYKKQMQSCSEFLKTLKIEPIDLRRPDKAWRFCHNLTRLTLNGNPIGAHNRDLDVFSKLKQLQSLEMRSCSLELIPVPAMCTMFRELPTSISLLDFGDNHLSIFPPIFHLKQLKIINAAHNAIKYLPSRIGVLQNLNTIDVSNNLMTALPYVFSKIPSIEHVGINANDQMVRLEEEIGPIFIRRLLTKVDNIEYTHEGGVDKLGTIAANAIHREECSKSMKFGRQFLPLSLRFDMDDLMFEKPGISSLELCTGCVRLRHIRYIRPLIIQSRQIANSVDVIGRFVTFDRLLCIDCYRRTTSTNNGEPPFQCDYFQFAV | not soluble
16 | MTAVKHTTESTFAKLGVRDEIVRALGEEGIKRPFAIQELTLPLALDGEDVIGQARTGMGKTFAFGVPLLQRITSGDGTRPLTGAPRALVVVPTRELCLQVTDDLATAGKYLTAGPDTDDAAAVRRRLSVVSIYGGRPYEPQIEALRAGADVVVGTPGRLLDLCQQGHLQLGGLSVLVLDEADEMLDLGFLPDIERILRQIPADRQSMLFSATMPDPIITLARTFMVRPTHIRAEAPHSSAVHDATEQFVYRAHALDKVELVSRVLQARDRGATMIFTRTKRTAQKVADELTERGFAVGAVHGDLGQLAREKALKAFRTGGIDVLVATDVAARGIDIDDVTHVINYQCPEDEKMYVHRIGRTGRAGRTGVAVTLVDWDELPRWSMIDQALGLGSPDPAETYSNSPHLYAELAIPATAGGTVGPARKSQGRRRDTDCDGQKTAQHARNTPRRRRTRGGKPVTGHPGTNPISSPIVGGDATSEPGSGTASDSGSDVVSGSRSGNGEAARRRRRRRRRPTHAQDGFAARAN | soluble
17 | MNNDLAPHLDIALRHSPPGLAATPIPRVDICVGQGFTEKAPCLYRSMICFILQGSKRVAINDNLLSYDSEHYLISALDLPLIGQILDAEDGQPYVAVSLVLDPALLAVLAASMPAVREREQKGIGITINPMSAPLRDTLLRLLSLLDTPDDIPILAPMVERELLYRLLQGPQGRLL | not soluble
18 | MQLEPQIKTQLQAIVEAARERRAEDVVALDLTEVSSSLEYFVICTASAGLQLNAVQENIREKAQEAGLPRPSIEGPSERWLLLAFGGSIVVHIMTKDAREYYDLEGLWSDAKVLDL | soluble
19 | MNIGIIGTGNMGNILIDAFLETRAVKPSCLTIINRTPAKAYHIKEKYPSVHIAKTIPEVIEQSQLIFICVKPIDIYPILKKYAEHFSDETCLVSITSPISPSQLETLVPCHVARIIPSITNRALSGASLFTFGDNCSEEWQQKLLRLFKNISTPLVIEEDITRVSSDIASCGPAFFSYLLQCFINAAVDKTNITHEEATTLVSEMVVGMGKLLEKEIFTLPTLQEKVCVKGGVTGEGIRVLEEHVGDMFHKLIERTHEKFDEDLECVDQQFNKHTLEHHHHHH | soluble
20 | LLSPPIALKPLDSSAKWRIIYWNPNGCDKTCLKQLNMLGRVRLSFGRKLYQVDEWLLLSNKDSLIAEELKPILKEQDIHVAALSLTEMSKLSTLYPEAKIFIANPDNYLILSYQPGCNPGDIYKDLKLLLNTTE | not soluble
21 | MALNRMRQAKGAVASLLQNAYVHRDQVSLISFRGKQAQVLLPPSQSVDRAKRELDVLPTGGGTPLASALLTGWETAKQARAKGITQIMFVMITDGRGNIPLGAAYDPNATKASKEELEKEVEALALSIQADGIASIVVDTQMNYLSRGEAPKLAQKLGGRYFYLPNAKAEQIVEAALS | not soluble
22 | MLNRIIEHMNAHHVEDMKGLLKKFGQVHHAENVAFKSVDPQGIVIGYNHNQTLRIEFNHEVKDPKDYKNAIIELCQSVEKTHDLKGVEEEVKAFKESFDSVCLATLHPNGHVVCSYAPLMSDGKQYYIYVSEVAEHFAGLKNNPHNVEVMFLEDESKAKSAILRKRLRYKTNARFIERGAEFDKAFDSFIEKTGGAGGIKTIRAMQDFHLIALDFKEGRFVKGFGQAYDILGDKIAYVGDKGNPHNFAHKK | not soluble

Reference: the DeepSol protein solubility set
